Measured values taken from patent US20050118638A1.
Like-named read-outs stand apart in the source and are kept apart here.

Legend:
[1] = target: TSH receptor (detergent solubilised TSH receptor preparation) (UniProt P16473); assay: TSHR coated tubes after serum G41
[2] = target: TSH receptor (detergent solubilised TSH receptor preparation) (UniProt P16473); assay: TSHR coated tubes after serum G32
[3] = target: TSH receptor (detergent solubilised TSH receptor preparation) (UniProt P16473); assay: TSHR coated tubes after serum NSF 21
[4] = target: TSH receptor (detergent solubilised TSH receptor preparation) (UniProt P16473); assay: TSHR coated tubes after serum G44
[5] = target: TSH receptor (detergent solubilised TSH receptor preparation) (UniProt P16473); assay: TSHR coated tubes after serum G28
[6] = target: TSH receptor (detergent solubilised TSH receptor preparation) (UniProt P16473); assay: TSHR coated tubes after serum G40
[7] = target: TSH receptor (detergent solubilised TSH receptor preparation) (UniProt P16473); assay: TSHR coated tubes after serum G49
[8] = target: TSH receptor (detergent solubilised TSH receptor preparation) (UniProt P16473); assay: TSHR coated tubes after serum NSF 26
[9] = target: TSH receptor (detergent solubilised TSH receptor preparation) (UniProt P16473); assay: TSHR coated tubes after serum NSF 16
[10] = target: TSH receptor (detergent solubilised TSH receptor preparation) (UniProt P16473); assay: TSHR coated tubes after serum G38
[11] = target: TSH receptor (detergent solubilised TSH receptor preparation) (UniProt P16473); assay: TSHR coated tubes after serum G36
[12] = target: TSH receptor (detergent solubilised TSH receptor preparation) (UniProt P16473); assay: TSHR coated tubes after serum NSF 17
[13] = target: TSH receptor (detergent solubilised TSH receptor preparation) (UniProt P16473); assay: TSHR coated tubes after serum NSF 10
[14] = target: TSH receptor (detergent solubilised TSH receptor preparation) (UniProt P16473); assay: TSHR coated tubes after serum G50
[15] = target: TSH receptor (detergent solubilised TSH receptor preparation) (UniProt P16473); assay: TSHR coated tubes after serum G52
[16] = target: TSH receptor (detergent solubilised TSH receptor preparation) (UniProt P16473); assay: TSHR coated tubes after serum G29
[17] = target: TSH receptor (detergent solubilised TSH receptor preparation) (UniProt P16473); assay: TSHR coated tubes after serum G27
[18] = target: TSH receptor (detergent solubilised TSH receptor preparation) (UniProt P16473); assay: TSHR coated tubes after serum G25
[19] = target: TSH receptor (detergent solubilised TSH receptor preparation) (UniProt P16473); assay: TSHR coated tubes after serum G31
[20] = target: TSH receptor (detergent solubilised TSH receptor preparation) (UniProt P16473); assay: TSHR coated tubes after serum G24
[21] = target: TSH receptor (detergent solubilised TSH receptor preparation) (UniProt P16473); assay: 125I-TSHR immunoprecipitation; competitor TRAb of serum K3
[22] = target: TSH receptor (detergent solubilised TSH receptor preparation) (UniProt P16473); assay: TSHR coated tubes after serum G37
[23] = target: TSH receptor (detergent solubilised TSH receptor preparation) (UniProt P16473); assay: TSHR coated tubes after serum G35
[24] = target: TSH receptor (detergent solubilised TSH receptor preparation) (UniProt P16473); assay: TSHR coated tubes after serum NSF 4
[25] = target: TSH receptor (detergent solubilised TSH receptor preparation) (UniProt P16473); assay: TSHR coated tubes after serum G51
[26] = target: TSH receptor (detergent solubilised TSH receptor preparation) (UniProt P16473); assay: TSHR coated tubes after serum G34
[27] = target: TSH receptor (detergent solubilised TSH receptor preparation) (UniProt P16473); assay: TSHR coated tubes after serum G39
[28] = target: TSH receptor (detergent solubilised TSH receptor preparation) (UniProt P16473); assay: TSHR coated tubes after serum G48
[29] = target: TSH receptor (detergent solubilised TSH receptor preparation) (UniProt P16473); assay: TSHR coated tubes after serum NSF 22
[30] = target: TSH receptor (detergent solubilised TSH receptor preparation) (UniProt P16473); assay: TSHR coated tubes after serum G47
[31] = target: TSH receptor (detergent solubilised TSH receptor preparation) (UniProt P16473); assay: TSHR coated tubes after serum G46
[32] = target: TSH receptor (detergent solubilised TSH receptor preparation) (UniProt P16473); assay: TSHR coated tubes after serum G23
[33] = target: TSH receptor (detergent solubilised TSH receptor preparation) (UniProt P16473); assay: TSHR coated tubes after serum G45
[34] = target: TSH receptor (detergent solubilised TSH receptor preparation) (UniProt P16473); assay: TSHR coated tubes after serum G33
[35] = target: TSH receptor (detergent solubilised TSH receptor preparation) (UniProt P16473); assay: TSHR coated tubes after serum G43
[36] = target: TSH receptor (detergent solubilised TSH receptor preparation) (UniProt P16473); assay: TSHR coated tubes after serum G30
[37] = target: TSH receptor (detergent solubilised TSH receptor preparation) (UniProt P16473); assay: TSHR coated tubes after serum G26
[38] = target: TSH receptor (detergent solubilised TSH receptor preparation) (UniProt P16473); assay: TSHR coated tubes after serum NSF 5
[39] = target: TSH receptor (detergent solubilised TSH receptor preparation) (UniProt P16473); assay: TSHR coated tubes, healthy blood donor sera
[40] = target: TSH receptor (detergent solubilised TSH receptor preparation) (UniProt P16473); assay: TSHR coated tubes after serum NSF 18
[41] = target: TSH receptor (detergent solubilised TSH receptor preparation) (UniProt P16473); assay: TSHR coated tubes after serum NSF 20
[42] = target: TSH receptor (detergent solubilised TSH receptor preparation) (UniProt P16473); assay: TSHR coated tubes, healthy blood donor sera; remark: listed apart in the source

Chain of TSH (thyrotrophin, thyroid stimulating hormone) (ligand) (P01223 21-132): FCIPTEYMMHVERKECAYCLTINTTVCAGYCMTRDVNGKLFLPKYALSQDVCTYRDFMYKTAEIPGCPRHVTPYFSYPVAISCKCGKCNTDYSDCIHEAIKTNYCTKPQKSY
Chain of TSH receptor (detergent solubilised TSH receptor preparation) (P16473 21-764 limits assumed): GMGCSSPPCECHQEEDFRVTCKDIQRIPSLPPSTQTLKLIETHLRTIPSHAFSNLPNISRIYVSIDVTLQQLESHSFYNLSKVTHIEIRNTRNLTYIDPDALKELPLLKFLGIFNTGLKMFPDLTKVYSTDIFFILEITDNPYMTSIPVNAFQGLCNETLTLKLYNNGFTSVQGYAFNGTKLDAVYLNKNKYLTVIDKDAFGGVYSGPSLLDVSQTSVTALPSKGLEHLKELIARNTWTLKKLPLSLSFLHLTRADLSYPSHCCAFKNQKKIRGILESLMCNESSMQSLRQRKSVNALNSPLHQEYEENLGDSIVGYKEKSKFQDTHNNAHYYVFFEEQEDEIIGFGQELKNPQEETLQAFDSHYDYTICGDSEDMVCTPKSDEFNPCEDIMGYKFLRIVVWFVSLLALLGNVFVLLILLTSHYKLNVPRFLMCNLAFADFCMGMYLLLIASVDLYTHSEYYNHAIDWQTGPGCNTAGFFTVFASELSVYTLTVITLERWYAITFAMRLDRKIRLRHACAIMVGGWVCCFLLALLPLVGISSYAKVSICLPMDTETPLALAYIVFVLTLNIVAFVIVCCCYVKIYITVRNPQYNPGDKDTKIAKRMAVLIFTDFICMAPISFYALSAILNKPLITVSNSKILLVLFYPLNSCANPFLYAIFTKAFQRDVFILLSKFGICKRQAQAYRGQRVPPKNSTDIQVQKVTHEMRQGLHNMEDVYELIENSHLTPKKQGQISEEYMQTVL

TSH (thyrotrophin, thyroid stimulating hormone) (ligand)
% total counts bound (% total counts added) [1]: 10.8
% total counts bound (% total counts added) [2]: 7.5
% total counts bound (% total counts added) [3]: 12.3
% total counts bound (% total counts added) [4]: 12.4
% total counts bound (% total counts added) [5]: 3.8
% total counts bound (% total counts added) [6]: 7.2
% total counts bound (% total counts added) [7]: 6.1
% total counts bound (% total counts added) [8]: 12.8
% total counts bound (% total counts added) [9]: 12
% total counts bound (% total counts added) [10]: 10
% total counts bound (% total counts added) [11]: 10.1
% total counts bound (% total counts added) [12]: 11.5
% total counts bound (% total counts added) [13]: 12.5
% total counts bound (% total counts added) [14]: 6.3
% total counts bound (% total counts added) [15]: 7.4
% total counts bound (% total counts added) [16]: 8
% total counts bound (% total counts added) [17]: 7.3
% total counts bound (% total counts added) [18]: 7.2
% total counts bound (% total counts added) [19]: 4.3
% total counts bound (% total counts added) [20]: 6.9
% inhibition of TRAb binding [21]: 55.4%
% total counts bound (% total counts added) [22]: 9.3
% total counts bound (% total counts added) [23]: 4.3
% total counts bound (% total counts added) [24]: 12.5
% total counts bound (% total counts added) [25]: 7.9
% total counts bound (% total counts added) [26]: 7.5
% total counts bound (% total counts added) [27]: 7.9
% total counts bound (% total counts added) [28]: 4.8
% total counts bound (% total counts added) [29]: 12.4
% total counts bound (% total counts added) [30]: 4.3
% total counts bound (% total counts added) [31]: 2.7
% total counts bound (% total counts added) [32]: 8.9
% total counts bound (% total counts added) [33]: 3.5
% total counts bound (% total counts added) [34]: 6.1
% total counts bound (% total counts added) [35]: 4
% total counts bound (% total counts added) [36]: 5.3
% total counts bound (% total counts added) [37]: 2.6
% total counts bound (% total counts added) [38]: 12.3
mean % total counts bound [39]: 12.1%
% total counts bound (% total counts added) [40]: 11.2
% total counts bound (% total counts added) [41]: 12.3
mean % total counts bound [42]: 12.2%
